This is an account of results in paper PMC10877566.

Experiment in all cases: bioluminescence (BRET) titration
(Bioluminescence resonance energy transfer reports proximity on the nanometre scale.)

Series [1] has as its system LUMID-1C (NL1C-thiazole orange conjugate) C166S;G182C. The settings on record: apparent, in base pairs; PBS pH 7.4, 0.1% (w/v) BSA, 5% DMSO, 1 nM sensor, 30 min at room temperature, then NanoGlo substrate 1:1000.
Series [2] concerns LUMID-1F (NL1F-thiazole orange conjugate). The following applies: apparent, in base pairs; PBS pH 7.4, 0.1% (w/v) BSA, 5% DMSO, 1 nM sensor, 30 min at room temperature, then NanoGlo substrate 1:1000.
In series [3] the test system is LUMID-2C double-glycine (NL2C-2G-thiazole orange). The settings on record: apparent, in base pairs; PBS pH 7.4, 0.1% (w/v) BSA, 5% DMSO, 1 nM sensor, 30 min at room temperature, then NanoGlo substrate 1:1000.
For series [4], the system named is LUMID-2C double-lysine (NL2C-2K-thiazole orange). The following applies: apparent, in base pairs; PBS pH 7.4, 0.1% (w/v) BSA, 5% DMSO, 1 nM sensor, 30 min at room temperature, then NanoGlo substrate 1:1000.
The test system of series [5] is LUMID-2C single-lysine (NL2C-1K-thiazole orange). The settings on record: apparent, in base pairs; PBS pH 7.4, 0.1% (w/v) BSA, 5% DMSO, 1 nM sensor, 30 min at room temperature, then NanoGlo substrate 1:1000.
Series [6] concerns LUMID-2C triple-lysine (NL2C-3K-thiazole orange). The settings on record: apparent, in base pairs; PBS pH 7.4, 0.1% (w/v) BSA, 5% DMSO, 1 nM sensor, 30 min at room temperature, then NanoGlo substrate 1:1000.
For series [7], the system named is LUMID-2F (NL2F-thiazole orange). The following applies: apparent, in base pairs; Hill n 0.65 per Fig 3 legend; PBS pH 7.4, 0.1% (w/v) BSA, 5% DMSO, 1 nM sensor, 30 min at room temperature, then NanoGlo substrate 1:1000.
The subject of series [8] is LUMID-3C (NL3C-thiazole orange). The settings on record: apparent, in base pairs; Hill n not fixed to 1 per Methods; PBS pH 7.4, 0.1% (w/v) BSA, 5% DMSO, 1 nM sensor, 30 min at room temperature, then NanoGlo substrate 1:1000.

Chain of LUMID-1C (NL1C-thiazole orange conjugate) C166S;G182C (chain, as listed by the source C166S G182C): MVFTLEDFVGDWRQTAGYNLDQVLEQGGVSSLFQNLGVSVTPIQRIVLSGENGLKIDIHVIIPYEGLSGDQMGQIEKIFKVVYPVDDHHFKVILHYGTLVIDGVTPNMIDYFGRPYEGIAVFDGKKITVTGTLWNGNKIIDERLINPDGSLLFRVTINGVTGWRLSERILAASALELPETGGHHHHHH

Regarding “sheared salmon sperm dsDNA (~2000 bp fragments)”, the Kd stood at 3100 µM in series [1]; 4100 µM in series [2]; 279 µM in series [3]; 27 µM in series [4]; 142 µM in series [5]; 21 µM in series [6]. Besides, the Kd in series [7] stood at 43 µM; in series [8] it was 2.1 µM.
